Data taken from the supplement of paper PMC11780869.

Tested on: Bacillus subtilis
Experiment: cleaved RNA product abundance (RNA/gDNA barcode ratio) relative to median wild-type variant (ratio to wild type); higher = more accumulation of the downstream cleavage product
Details: cleavage site: cggR-gapA (positions -7 to +36 mutated)
How it was run: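 Cleaved product abundance was measured with barcoded reporter mRNAs (truncated aprE or tetM) carrying mutagenized RNase Y cleavage-site windows in the B. subtilis chromosome. Cultures in LB at 37°C grew from OD600 0.0003 to 0.3. Gel-selected cleaved RNA was reverse transcribed and barcode-sequenced with genomic DNA barcodes, and the RNA:gDNA barcode ratio per construct was scaled to the median construct bearing the unmutated site.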

[1] = experiment (reporter, strain, medium): exp 2b: truncated aprE reporter, strain BJT200
[2] = experiment (reporter, strain, medium): exp 4a: truncated aprE reporter, strain BJT201 with 2% xylose (RNase J1 expressed)

Sequence	cleaved RNA product abundance [1]	cleaved RNA product abundance [2]	cleaved RNA product abundance (experiment (reporter, strain, medium): exp 6: tetM reporter, strain 168)
ACAGACGAAGGAGCCGCAAAGAAGTTATTAAGTGATGAATTATCCCTCAATATAAATATCTCTCACTTATTTAAA	0.104	0.249	–
ACAGACGAAGGAGCCGCAAAGAAGTTATTAAGTGATGACTAATCCCTCAATATAAATATCTCTCACTTATTTAAA	0.081	0.111	–
ACAGACGAAGGAGCCGCAAAGAAGTTATTAAGTGATGATTAATCCCTCAATATAAATATCTCTCACTTATTTAAA	0.112	–	–
ACAGACGAAGGAGCCGCAAAGAAGTTATTAAGTGATGTATAATCCCTCAATATAAATATCTCTCACTTATTTAAA	0.088	0.144	–
ACAGACGAAGGAGCCGCAAAGAAGTTATTAAGTGATTAATAATCCCTCAATATAAATATCTCTCACTTATTTAAA	0.112	0.0979	–
ACAGACGAAGGAGCCGCAAAGAAGTTATTAAGTGGTGAATAATCCCTCAATATAAATATCTCTCACTTATTTAAA	–	0.103	–
ACAGACGAAGGAGCCGCAAAGAAGTTATTAAGTGTTGAATAATCCCTTAATATAAATATCTCTCACTTATTTAAA	–	0.146	–
ACAGACGAAGGAGCCGCAAAGAAGTTATTAAGTTATGAATAATCCCTCAATATAAATAACTCTCACTTATTTAAA	–	0.117	–
ACAGACGAAGGAGCCGCAAAGAAGTTATTAAGTTATGAATAATCCCTCAATATAAATATCTCTCACTTATTTAAA	0.0915	0.13	–
ACAGACGAAGGAGCCGCAAAGAAGTTATTAAGTTATGAATAATCCGTCAATATAAATATCTCTCACTTATTTAAA	0.078	–	–
ACAGACGAAGGAGCCGCAAAGAAGTTATTAATAGATGAATAATCCCTCAATATAAATATCTCTCACTTATTTAAA	0.0972	0.116	–
ACAGACGAAGGAGCCGCAAAGAAGTTATTAATAGATTAATAATCCCTCAATATAAATATCTCTCACTTATTTAAA	–	0.135	–
ACAGACGAAGGAGCCGCAAAGAAGTTATTAATCGATGAATAATCCCTCAATATAAATATCTCTCACTTATTTAAA	–	0.164	–
ACAGACGAAGGAGCCGCAAAGAAGTTATTAATGAATGAATAAACCCTCAATATAAATATCTCTCACTTATTTAAA	–	0.133	–
ACAGACGAAGGAGCCGCAAAGAAGTTATTAATGAATGAATAATCCCTCAATATAAATATCTCTCACTTATTTAAA	0.0941	0.137	–
ACAGACGAAGGAGCCGCAAAGAAGTTATTAATGCATGAATAATCCCTCAATATAAATATCTCTCACTTATTTAAA	0.0867	0.0823	–
ACAGACGAAGGAGCCGCAAAGAAGTTATTAATGGAAGAATAATCCCTCAATATAAATATCTCTCACTTATTTAAA	0.0884	0.114	–
ACAGACGAAGGAGCCGCAAAGAAGTTATTAATGGACGAATAATCCCTCAATATAAATATCTCTCACTTATTTAAA	0.0737	0.0953	–
ACAGACGAAGGAGCCGCAAAGAAGTTATTAATGGATAAATAATCCCTCAATATAAATATCTCTCACTTATTTAAA	0.102	0.116	–

Sequence	cleaved RNA product abundance [1]	cleaved RNA product abundance [2]	cleaved RNA product abundance (experiment (reporter, strain, medium): exp 6: tetM reporter, strain 168)
ACAGACGAAGGAGCCGCAAAGAAGTTATTAATGGATCAATAATCCCTCAATATAAATATCTCTCACTTATTTAAA	0.0839	0.127	–
ACAGACGAAGGAGCCGCAAAGAAGTTATTAATGGATGAAAAATCCCTCAATATAAATATCTCTCACTTATTTAAA	0.111	0.166	–
ACAGACGAAGGAGCCGCAAAGAAGTTATTAATGGATGAACAATCCCTCAATATAAATATCTCTCACTTATTTAAA	–	0.143	–
ACAGACGAAGGAGCCGCAAAGAAGTTATTAATGGATGAATAAACCCTCAATATAAATATCTCTCACTTATTTAAA	0.0999	0.107	–
ACAGACGAAGGAGCCGCAAAGAAGTTATTAATGGATGAATAACCCCTCAATATAAATATCTCTCACTTATTTAAA	0.0893	0.0925	–
ACAGACGAAGGAGCCGCAAAGAAGTTATTAATGGATGAATAAGCCCTCAATATAAATATCTCTCACTTATTTAAA	–	0.107	–
ACAGACGAAGGAGCCGCAAAGAAGTTATTAATGGATGAATAATACCTCAATATAAATATCTCTCACTTATTTAAA	0.0824	0.126	–
ACAGACGAAGGAGCCGCAAAGAAGTTATTAATGGATGAATAATCACTCAATATAAATATCTCTCACTTATTTAAA	0.106	0.141	–
ACAGACGAAGGAGCCGCAAAGAAGTTATTAATGGATGAATAATCACTTAATATAAATATCTCTCACTTATTTAAA	–	0.194	–
ACAGACGAAGGAGCCGCAAAGAAGTTATTAATGGATGAATAATCCATCAATATAAATATCTCTCACTTATTTAAA	0.667	1.21	–
ACAGACGAAGGAGCCGCAAAGAAGTTATTAATGGATGAATAATCCCACAATATAAATATCTCTCACTTATTTAAA	0.0949	0.156	–
ACAGACGAAGGAGCCGCAAAGAAGTTATTAATGGATGAATAATCCCCCAATATAAATATCTCTCACTTATTTAAA	0.0983	0.122	–
ACAGACGAAGGAGCCGCAAAGAAGTTATTAATGGATGAATAATCCCGCAATATAAATATCTCTCACTTATTTAAA	–	0.144	–
ACAGACGAAGGAGCCGCAAAGAAGTTATTAATGGATGAATAATCCCTAAATATAAATATCTCTCACTTATTTAAA	0.163	0.196	–
ACAGACGAAGGAGCCGCAAAGAAGTTATTAATGGATGAATAATCCCTCAAAATAAATATCTCTCACTTATTTAAA	0.11	0.151	–
ACAGACGAAGGAGCCGCAAAGAAGTTATTAATGGATGAATAATCCCTCAACATAAATATCTCTCACTTATTTAAA	–	0.101	–
ACAGACGAAGGAGCCGCAAAGAAGTTATTAATGGATGAATAATCCCTCAAGATAAATATCTCTCACTTATTTAAA	0.0884	0.0994	–
ACAGACGAAGGAGCCGCAAAGAAGTTATTAATGGATGAATAATCCCTCAATAAAAATATCTCTCACTTATTTAAA	0.136	0.108	–
ACAGACGAAGGAGCCGCAAAGAAGTTATTAATGGATGAATAATCCCTCAATAGAAATATCTCTCACTTATTTAAA	–	0.0769	–

Sequence	cleaved RNA product abundance [1]	cleaved RNA product abundance [2]	cleaved RNA product abundance (experiment (reporter, strain, medium): exp 6: tetM reporter, strain 168)
ACAGACGAAGGAGCCGCAAAGAAGTTATTAATGGATGAATAATCCCTCAATATAAAAATCTCTCACTTATTTAAA	0.133	0.156	–
ACAGACGAAGGAGCCGCAAAGAAGTTATTAATGGATGAATAATCCCTCAATATAAACATCTCTCACTTATTTAAA	–	0.116	–
ACAGACGAAGGAGCCGCAAAGAAGTTATTAATGGATGAATAATCCCTCAATATAAAGATCTCTCACTTATTTAAA	–	0.0975	–
ACAGACGAAGGAGCCGCAAAGAAGTTATTAATGGATGAATAATCCCTCAATATAAATAACTCTCACTTATTTAAA	0.115	0.23	–
ACAGACGAAGGAGCCGCAAAGAAGTTATTAATGGATGAATAATCCCTCAATATAAATATCTCTCACTTATTTAAA	0.122	0.155	0.174
ACAGACGAAGGAGCCGCAAAGAAGTTATTAATGGATGAATAATCCCTCAATATAAATGTCTCTCACTTATTTAAA	0.107	0.194	–
ACAGACGAAGGAGCCGCAAAGAAGTTATTAATGGATGAATAATCCCTCAATATAAATTTCTCTCACTTATTTAAA	0.112	0.138	–
ACAGACGAAGGAGCCGCAAAGAAGTTATTAATGGATGAATAATCCCTCAATATAACTATCTCTCACTTATTTAAA	–	0.072	–
ACAGACGAAGGAGCCGCAAAGAAGTTATTAATGGATGAATAATCCCTCAATATAATTATCTCTCACTTATTTAAA	0.13	0.108	–
ACAGACGAAGGAGCCGCAAAGAAGTTATTAATGGATGAATAATCCCTCAATATACATATCTCTCACTTATTTAAA	0.157	0.165	–
ACAGACGAAGGAGCCGCAAAGAAGTTATTAATGGATGAATAATCCCTCAATATAGATATCTCTCACTTATTTAAA	–	0.215	–
ACAGACGAAGGAGCCGCAAAGAAGTTATTAATGGATGAATAATCCCTCAATATATATATCTCTCACTTATTTAAA	0.0976	0.15	–
ACAGACGAAGGAGCCGCAAAGAAGTTATTAATGGATGAATAATCCCTCAATATCAATATCTCTCACTTATTTAAA	–	0.0753	–
ACAGACGAAGGAGCCGCAAAGAAGTTATTAATGGATGAATAATCCCTCAATATTAATATCTCTCACTTATTTAAA	–	0.0604	–
ACAGACGAAGGAGCCGCAAAGAAGTTATTAATGGATGAATAATCCCTCAATTTAAATATCTCTCACTTATTTAAA	0.0807	–	–
ACAGACGAAGGAGCCGCAAAGAAGTTATTAATGGATGAATAATCCCTCACTATAAATATCTCTCACTTATTTAAA	0.0821	–	–
ACAGACGAAGGAGCCGCAAAGAAGTTATTAATGGATGAATAATCCCTCAGTATAAATATCTCTCACTTATTTAAA	0.0853	0.0629	–
ACAGACGAAGGAGCCGCAAAGAAGTTATTAATGGATGAATAATCCCTCATTATAAATATCTCTCACTTATTTAAA	–	0.201	–
ACAGACGAAGGAGCCGCAAAGAAGTTATTAATGGATGAATAATCCCTCCATATAAATATCTCTCACTTATTTAAA	–	0.12	–
